Results as given in paper PMC7810988 (2019).

Biological target: T1, OsSPX4^1–321 (rice, UniProt Q10B79 1-320)
T1 chain: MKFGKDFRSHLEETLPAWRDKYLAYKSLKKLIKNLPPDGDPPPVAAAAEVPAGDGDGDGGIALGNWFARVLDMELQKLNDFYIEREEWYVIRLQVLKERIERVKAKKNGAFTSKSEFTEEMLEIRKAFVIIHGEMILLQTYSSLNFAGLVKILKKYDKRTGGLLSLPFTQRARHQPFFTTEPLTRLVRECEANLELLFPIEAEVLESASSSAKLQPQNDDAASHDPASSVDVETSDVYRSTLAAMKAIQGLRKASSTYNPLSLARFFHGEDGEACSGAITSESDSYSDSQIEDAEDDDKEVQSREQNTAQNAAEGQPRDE
Assay: ITC; 5PP-InsP5 (InsP7) 100 uM

B1: full-length OsPHR2 (OsPHR2^1-426, wild type) (natural protein)
chain: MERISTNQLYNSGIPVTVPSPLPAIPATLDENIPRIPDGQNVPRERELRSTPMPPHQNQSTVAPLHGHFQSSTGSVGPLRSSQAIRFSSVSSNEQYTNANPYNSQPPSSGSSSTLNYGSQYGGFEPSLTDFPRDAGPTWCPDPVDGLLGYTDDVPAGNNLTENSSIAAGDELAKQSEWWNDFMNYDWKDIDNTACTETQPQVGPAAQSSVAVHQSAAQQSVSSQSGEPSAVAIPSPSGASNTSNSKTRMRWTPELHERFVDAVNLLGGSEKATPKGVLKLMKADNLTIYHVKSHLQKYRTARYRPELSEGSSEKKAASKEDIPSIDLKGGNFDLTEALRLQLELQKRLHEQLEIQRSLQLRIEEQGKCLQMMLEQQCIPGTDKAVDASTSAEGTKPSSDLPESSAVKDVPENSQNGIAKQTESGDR
  Kd: 3.05 µM
